Laboratory results: patent US20150139997A1 (Genmab, published 2015)

Key:
DR4 (R&D Systems) = biological target: T1, DR4 (R&D Systems) (UniProt O00220 24-239, limits assumed); experiment: ELISA, coated antigen 50 ng/mL
T1 construct: Bought reagent coated at 50 ng/mL; also called TRAIL-R1

DcR1 (R&D Systems) = biological target: T2, DcR1 (R&D Systems) (UniProt O14798 26-221, limits assumed); experiment: ELISA, coated antigen 50 ng/mL
T2 construct: Bought reagent coated at 50 ng/mL; also called TRAIL-R3
T2 sequence (looked up): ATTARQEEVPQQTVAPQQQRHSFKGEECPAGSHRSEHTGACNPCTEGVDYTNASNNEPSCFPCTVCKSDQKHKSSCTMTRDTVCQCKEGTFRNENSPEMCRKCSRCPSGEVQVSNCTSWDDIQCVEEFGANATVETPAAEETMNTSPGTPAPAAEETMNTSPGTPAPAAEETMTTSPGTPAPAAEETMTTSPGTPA

DcR2 (R&D Systems) = biological target: T3, DcR2 (R&D Systems) (UniProt Q9UBN6 56-211, limits assumed); experiment: ELISA, coated antigen 50 ng/mL
T3 construct: Bought reagent coated at 50 ng/mL; also called TRAIL-R4
T3 sequence (looked up): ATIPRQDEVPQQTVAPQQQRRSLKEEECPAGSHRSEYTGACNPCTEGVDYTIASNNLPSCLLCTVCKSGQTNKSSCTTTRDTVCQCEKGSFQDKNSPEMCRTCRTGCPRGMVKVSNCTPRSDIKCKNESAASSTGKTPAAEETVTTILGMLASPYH

Fas (R&D Systems) = biological target: T4, Fas (R&D Systems) (UniProt P25445 26-173, limits assumed); experiment: ELISA, coated antigen 50 ng/mL
T4 construct: Bought reagent coated at 50 ng/mL
T4 sequence (looked up): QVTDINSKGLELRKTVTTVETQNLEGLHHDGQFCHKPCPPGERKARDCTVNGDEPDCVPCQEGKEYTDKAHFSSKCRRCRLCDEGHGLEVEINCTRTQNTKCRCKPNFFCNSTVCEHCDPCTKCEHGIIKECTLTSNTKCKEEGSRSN

FasL (Tebu-bio) = biological target: T5, FasL (Tebu-bio) (UniProt P48023 134-281, limits assumed); experiment: ELISA, coated antigen 100 ng/mL
T5 construct: Bought reagent coated at 100 ng/mL
T5 sequence (looked up): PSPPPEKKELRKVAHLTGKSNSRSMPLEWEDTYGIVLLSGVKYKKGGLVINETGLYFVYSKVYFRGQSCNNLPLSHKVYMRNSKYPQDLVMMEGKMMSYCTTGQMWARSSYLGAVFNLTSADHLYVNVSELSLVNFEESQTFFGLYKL

[1] = biological target: T6, recombinant TRAIL (R&D Systems) (UniProt P50591 114-281); experiment: ELISA, coated antigen 100 ng/mL
T6 construct: Bought reagent, used coated in the ELISA and soluble at 100 ng/mL on H4 cells; also called Apo2L; TRAIL ligand

Measured: binding result

B1: mDR5-01 (antibody, V domains shown)
VH: EVQLQQSGAEFVKPGASVKLSCTASGFNIKDTFIHWVKQRPEQGLDWIGRIDPANGNTKYDPKFQGKATETTDTSSNTAYLQLSSLTSEDTAVYYCVRGLYTYYFDYWGQGTSVTVSS
VL: DIVLTQSPATLSVTPGDSVSLSCRASQSISNNLHWYQQKSHESPRLLIKFASQSISGIPSRFSGSGSGADFTLIINSVETEDFGMYFCQQGNSWPYTFGGGTKLEIK
no binding (tested: 1 µg/mL): all assays above

B2: mDR5-05 (antibody, V domains shown)
VH: EVQLQQSGAELVKPGASVKLFCTASGFNIKDTHIHWVKQRPEQGLEWIGRIDPANGNTEYDPKFQGKATIRVDTSSDTAYLQLSSLTSEDTAVHYCARWGTNVYFAYWGQGTSVTVSS
VL: DIQLTQSPAIMSASPGEKVTISCSASSSVSYMYWYQQKPGSSPKPWIYRTSNLASGVPGRFSGSGSGTSYSLTISSMEAEDAATYYCQQYHSYPPTFGGGTKLEIK
notes: mouse IgG1 is implied
no binding (tested: 1 µg/mL): all assays above
